Measured values as given in the supplement of paper PMC9170038.

Test system: MS2 coat protein
Experiment: apparent KD of MS2 coat protein; designed switch direction (-1 OFF switch, 1 ON switch): 1; higher = weaker reporter binding
In short: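 Normalised cluster fluorescence was curve-fitted, and each design's median over clusters is its apparent KD. Before this, SNAP-549-labelled MS2 coat protein was titrated from 0.7 or 1.5 nM, doubling to 3 µM, over RNA switches transcribed on Illumina chips by stalled E. coli RNA polymerase. Titrations had no input, 200 uM small-molecule ligand, or an oligonucleotide input, and steps lasted 0.8–1.5 h (lowest) to 10–20 min (highest).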

[1] = input ligand: microRNA oligo, concentration not stated
[2] = Eterna round: R95, input ligand: FMN 200 uM
[3] = Eterna round: R95, input ligand: microRNA oligo, concentration not stated
[4] = Eterna round: R95, input ligand: none

Row | Sequence | apparent KD of MS2 coat protein (input ligand: FMN 200 uM) [nM] | apparent KD of MS2 coat protein [1] [nM] | apparent KD of MS2 coat protein (input ligand: none) [nM] | apparent KD of MS2 coat protein [2] [nM] | apparent KD of MS2 coat protein [3] [nM] | apparent KD of MS2 coat protein [4] [nM]
1 | GGUAUUAACACAGGAUAUGCUUACGAAACGUAAGCAGAAGGGUGAACAUGAGGAUCACCCAUGUAUGUACCAGGGCGUGAGCCC [JL SSNG1 1.73] (Eterna round: R96, puzzle: Same State NG 1) | 137 | 510 | 1040 |  |  | 
2 | AGUCCAGCCUGAGCUGGACAAAAGCAUGUACAUGAGGAUCACCCAUGUUCAUGUACAAGCUUUUUGCUCGUCGGAAU [Mat - hsa-mir-208a - Mod of JL - 49] (puzzle: Sensor for hsa-mir-208a) |  |  |  | 762 | 16.5 | 905
3 | AUAAAACAUGAGGAUCACCCAUGUCAACAAAGUCGAGGAUAUGGGCAAAUAAUAUAAGAACCAGAAGGCGAAUAAU [salish99_ss1_r3_022] (puzzle: Same State 1) |  |  |  | 36.6 | 207 | 191
4 | GUUAAACAUGAGGAUCACCCAUGUAAUAAUAUGGGAGGAUAUGGGAAUUAAUUAAUUAAACCAGAAGGCCUAAUUG [Mat - Same State 1 - D84] (puzzle: Same State 1) |  |  |  | 25.3 | 142 | 189
5 | AUUAUUAAUGCAGGAUAUGAUUAACAUGAGGAUCACCCAUGUGGUGUUGUGAGUAAGGAGAGUGAUCAGAAGGGCAUUUUUGUU [JMF's solution 14] (Eterna round: R96, puzzle: Same State NG 2) | 811 | 330 | 629 |  |  | 
6 | UGGUAACAUGAGGAUCACCCAUGUCAAAUGAAUCGAGGAUAUGGGAAAGGAGAAGAGAAACCAGAAGGCGAAGUUG [Altered State 1-13 - Jieux - Same State 1] (puzzle: Same State 1) |  |  |  | 50.7 | 54.1 | 51.9
7 | UGAAUAUUUACAGGAUAUGAGUUGUAUAGUGGGUCAGAAGGGUGGGUGUUUUGCACGGUGUGUUACAUGAGGAUCACCCAUGUU [SameState NG1 #27] (Eterna round: R96, puzzle: Same State NG 1) | 129 | 74.5 | 146 |  |  | 
8 | GCUCGACGUGUUGUCUACAUGAGGAUCACCCAUGUAGGUGCGGAGGAUAUCUACGUGUUUUAUGUAGAGAAGGUCGUGUCGAGC [SameState NG3 #88] (Eterna round: R96, puzzle: Same State NG 3) | 15.1 | 15.5 | 17.2 |  |  | 
9 | AGCUAGUACCGAGGAUAUACAUACAUGAGGAUCACCCAUGUAUACAUGAACAAUUGAGACUACAUGUAGAAGGCGGUACUAGCA [JL SSNG2 1.19] (Eterna round: R96, puzzle: Same State NG 2) |  | 37.4 |  |  |  | 
10 | GGUGGGUUACUACCCACACAUGAGGAUCACCCAUGUAUUGGGAAGGAUAUGGUGCCUAUUUGGUACCAGAAGGUCCUGAAGGUG [SS-NG3-LRO17] (Eterna round: R96, puzzle: Same State NG 3) | 980 | 571 | 1770 |  |  | 
11 | GUGGUCAGACAUGAGGAUCACCCAUGUGGAAUAAAUAACACAGAGGAUAUGGAAUAUAAAAUAUACCAGAAGGCUGGAUUGGUG (Eterna round: R96, puzzle: Same State NG 3) | 131 | 188 | 268 |  |  | 
12 | GGAGCCGGCACUGAGGAUAUUCAUAUUUAAACAUGAGGAUCACCCAUGUAGGCCAGAAGGCCUUGGGAGAAGGCAGGUCGGCUCU [salish99_ss2_r3_077] (puzzle: Same State 2) |  |  |  | 20.8 | 247 | 434
13 | UGUUGUAUUACAGGAUAUCUAUGAUUUUUAUCUAGAGAAGGGUAUUCACAUGAGGAUCACCCAUGUAUAUACGAGGAAGUUGUG [JMF's solution 69] (Eterna round: R96, puzzle: Same State NG 1) |  | 25.1 |  |  |  | 
14 | GUGCGAGUGCCACAGGAUAUACGUGGAUCGACAUGAGGAUCACCCAUGUAUAUCCUAAUAAUUGCGUAGAAGGGUGGUCAGUCGG [Inzage] (Eterna round: R96, puzzle: Same State 2) | 164 | 313 | 478 |  |  | 
15 | AGUCCAGCCUGAGCUGGACAAAAGCAUGUACAUGAGGAUCACCCAUGUCAUGUACAAGCUUUUUGCUCGUCUUAAUA [Mat - hsa-mir-208a - Mod of JL - D44] (puzzle: Sensor for hsa-mir-208a) |  |  |  | 544 | 15.3 | 634
16 | GCUAGUAUAAUUGCUAACAUGAGGAUCACCCAUGUAUGUUGGCAGGAUAUCGUUUGCAAAGCAAACGAGAAGGGCUAAACUAGC [Mat - Same State NG 3 - JL Mod - D14] (Eterna round: R96, puzzle: Same State NG 3) | 36.3 | 103 | 104 |  |  | 

Row | Sequence | apparent KD of MS2 coat protein (input ligand: FMN 200 uM) [nM] | apparent KD of MS2 coat protein [1] [nM] | apparent KD of MS2 coat protein (input ligand: none) [nM] | apparent KD of MS2 coat protein [2] [nM] | apparent KD of MS2 coat protein [3] [nM] | apparent KD of MS2 coat protein [4] [nM]
17 | UGUUGUAUUACAGGAUAUCUGUUAUUUUUAUUUAGAGAAGGGUAUUCACAUGAGGAUCACCCAUGUAUAUACGAGGAAGUUGUG [JMF's solution 7] (Eterna round: R96, puzzle: Same State NG 1) |  | 40.8 |  |  |  | 
18 | GGAGCCGGUACUGAGGAUAUUUAUAUUAAAACAUGAGGAUCACCCAUGUAGGCCAGAAGGCCUUGGGAGAAGGCAGAUCGGCUCC [Biseusra - 5] (puzzle: Same State 2) |  |  |  | 15.1 | 46.2 | 72.8
19 | GAGUGGUGGAGAGGAUAUACAUUGUUAUUCACUGUAGAAGGUUCUAACAUGAGGAUCACCCAUGUAGGACUAUUCCUGAGUUUU [Parity 56 - Jieux - Same State NG 1] (Eterna round: R96, puzzle: Same State NG 1) |  | 8.92 |  |  |  | 
20 | CGUCCCUCCACAGGAUAUCGACCAUUAAAACGGCGAGAAGGGUGGCCACAUGAGGAUCACCCAUGUGGAAUUGGACAAGCUACC [Veonso] (Eterna round: R96, puzzle: Same State NG 1) | 127 | 23.9 | 127 |  |  | 
21 | UGGAUCUAGGCUUGCCUGGGUCCUUCAAGACAUGAGGAUCACCCAUGUGUUUUUUUUUUGCUUUUUGUUUGUCUUGA [JL A Humble Attempt mod 2] (puzzle: Sensor for hsa-mir-208a) |  |  |  | 50.8 | 15 | 23.1
22 | GUUACAUGAGGAUCACCCAUGUAUGUGUGGGAGUAAGUGUCUUAGGAUAUCUAUCAUUGAAUUUAAGAGAAGGAAGAUUGUUGU [JMF's solution 92] (Eterna round: R96, puzzle: Same State NG 3) |  | 81.3 |  |  |  | 
23 | UGGCUCAGACGAGGAUAUACGUGGUCACAUGAGGAUCACCCAUGUCUCGAGCUUCGGCUCGAGGCGUAGAAGGUGUCUGAGCCU [SSNG2/6-C3] (Eterna round: R96, puzzle: Same State NG 2) | 237 | 363 | 662 |  |  | 
24 | AUCCUACAUGAGGAUCACCCAUGUGACGCCUCGAUAGGAUAUGCGUGUGCCUUGGCGCAUGCAGAAGGAUUGGAGC [JL Aveso mod 5] (puzzle: Same State 1) |  |  |  | 88.4 | 72.6 | 78.5
25 | GAGUAGUUGAUAGGAUAUUGAUUGUUGUAGGAUCAAGAAGGAUCUAACAUGAGGAUCACCCAUGUAGGACUAUUCCUGUGUAUC [Parity 85 - Jieux - Same State NG 1] (Eterna round: R96, puzzle: Same State NG 1) | 18.6 | 13.7 | 21.4 |  |  | 
26 | GCUAGAAUUAAAGCCAACAUGAGGAUCACCCAUGUAUGUUGGCAGGAUAUCGUUUGCAAAGCAAACGAGAAGGGCCAAACUAGC [Mat - Same State NG 3 - JL Mod - D2] (Eterna round: R96, puzzle: Same State NG 3) | 43.2 | 94.1 | 125 |  |  | 
27 | CCAUAACUGUGAGGAUAUUGUUGCGUUUAGUGACGAGAAGGCAUUCAUGUGAUAUAUACAUACAUGAGGAUCACCCAUGUUGUA [NG 1 30P] (Eterna round: R96, puzzle: Same State NG 1) |  | 21.4 |  |  |  | 
28 | ACAUGAGAGUGAGGAUAUGCUGUACCUACAUGUGACAUGAGGAUCACCCAUGUGGUAAGUAUGACGCAGAAGGCACAGAUAUGU [Equivalance 78 - Jieux - Same State NG 2] (Eterna round: R96, puzzle: Same State NG 2) | 13.3 | 78.9 | 103 |  |  | 
29 | CCCUGAGGCAGCCUACAGGGACAUGAGGAUCACCCAUGUACACAGGAUAUCGAGGGCUCCGCCCUCGAGAAGGGUGAUCAGACU [Redied] (Eterna round: R96, puzzle: Same State NG 3) | 321 | 161 | 97.4 |  |  | 
30 | GGUGCAAUUAACGCCUACAUGAGGAUCACCCAUGUAUGUAGGCAGGAUAUCGUUUGCUUUGCAAACGAGAAGGGCUAUAGUACC [JL SSNG3 1.15] (Eterna round: R96, puzzle: Same State NG 3) | 54.4 | 130 | 157 |  |  | 
31 | GCUAGGAAAGAAGCCAACAUGAGGAUCACCCAUGUAUGUUGGUAGGAUAUCGUAUGCAAAGCAUACGAGAAGGGCUAACCUAGC [Mat - Same State NG 3 - JL Mod - D74] (Eterna round: R96, puzzle: Same State NG 3) | 127 | 127 | 153 |  |  | 
